Measured values reported in article PMC5206653, “PDLIM5 links kidney anion exchanger 1 (kAE1) to ILK and is required for membrane targeting of kAE1” (Scientific Reports, 2017).

T1: tag-free PDZ domain of PDLIM5 (PDLIM5-PDZ), first 127 residues (human, UniProt Q96HC4 1-127)
T1 construct: cDNA amplified from human kidney cDNA; a degradation product of the full-length construct in pSUMO3; also called untagged PDLIM5-PDZ; source: E. coli BL21, purified (Ni-NTA, SUMO proteinase 2 digestion, size-exclusion chromatography); not shown: His6-SUMO3, N-terminal, cleaved
T1 sequence (looked up): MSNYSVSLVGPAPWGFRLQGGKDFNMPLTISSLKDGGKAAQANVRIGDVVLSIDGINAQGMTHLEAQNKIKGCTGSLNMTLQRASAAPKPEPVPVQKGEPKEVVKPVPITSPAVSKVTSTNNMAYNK


Target: T1, tag-free PDZ domain of PDLIM5 …
Assay: ELISA; 100 μl of 30 μM GST_AE1C-WT, -Δ11, -M909T or GST alone immobilised on a 96-well plate; incubated with 100 μl of 2 μg/ml GST_PDLIM5, tag-free PDLIM5-PDZ or GST_ILK; detection with anti-PDLIM5-nt or anti-ILK, HRP, ABTS
Conditions: both partners purified

Row | Binder | binding result
1 | LIFRNVELQCLDADDAKATFDEEEGRDEYDEVAMPV (domain or fragment, human, last 36 residues of anion exchanger 1 (AE1, SLC4A1), the cytosolic C-terminal tail; cloned into pGEX-4T-1; source: E. coli BL21, purified (glutathione sepharose beads); not shown: GST, N-terminal, kept) [GST-tagged AE1 C-terminal domain, wild type (GST_AE1C-WT)] | binds
2 | LIFRNVELQCLDADDAKATFDEEEGRDEYDEVATPV (domain or fragment, human, UniProt P02730 876-911, looked up, last 36 residues of anion exchanger 1 (AE1, SLC4A1) with the dRTA-causing mutation M909T; cloned into pGEX-4T-1; C-terminus becomes A908TPV; source: E. coli BL21, purified (glutathione sepharose beads); not shown: GST, N-terminal, kept) [GST-tagged AE1 C-terminal domain with the missense mutation M909T (GST_AE1C-M909T)] | binds
